T1: recombinant cynomolgus MerTK extracellular domain (cynomolgus, UniProt Q12866 21-505 (human entry))
T1 construct: also called cyno MerTK ECD; not shown: polyHis or TEVS/Thrombin/murine IgG2a-Fc tag
T1 chain: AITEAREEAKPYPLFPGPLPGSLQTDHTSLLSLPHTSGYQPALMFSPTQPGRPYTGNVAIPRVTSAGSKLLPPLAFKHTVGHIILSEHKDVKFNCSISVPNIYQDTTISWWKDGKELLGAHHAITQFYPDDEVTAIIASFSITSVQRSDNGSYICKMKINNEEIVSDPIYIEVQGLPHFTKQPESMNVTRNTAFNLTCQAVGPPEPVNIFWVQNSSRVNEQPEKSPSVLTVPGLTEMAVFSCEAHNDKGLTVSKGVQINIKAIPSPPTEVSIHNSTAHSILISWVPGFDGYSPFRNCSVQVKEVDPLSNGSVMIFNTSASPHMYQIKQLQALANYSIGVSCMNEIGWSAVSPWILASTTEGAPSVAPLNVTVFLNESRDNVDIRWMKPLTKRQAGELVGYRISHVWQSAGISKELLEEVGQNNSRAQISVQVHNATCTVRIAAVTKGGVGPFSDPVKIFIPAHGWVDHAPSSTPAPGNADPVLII


Molecular target: T1, recombinant cynomolgus MerTK …
Experiment: SPR Carterra LSA, Ab immobilised; LB = low binding (below limit of measurement), KD not determined

Row | binding result | Binder
1 | binds | MTK-216 (antibody, human IgG1, V domains shown) VH: EVQLVESGGGLVKPGGSLKLSCAASGFTFSDYGMHWVRQAPEKGLEWVAFISSGSTTIYYADTVKGRFTISRDNAKNTLILQMTSLRSEDTAIYYCTRGGFHLDYWGQGTTLTVSS VL: SIMMTQSPSSLAVSAGEKVTMGCKSSQSVLYSANQQNYLAWYQQKPGQSLKLLIYWASTRESGVPDRFTGSGSGTDFTLTISSVQAEDLAVYYCHQYFSSWTFGGGTKLEIK
2 | binds | MTK-207 (antibody, human IgG1, V domains shown) VH: QVQLKESGPGLVAPSQSLSITCTVSGISLTSYGVSWVRQPPGKGLEWLGIIWGDGSTNYHSALISRLSISKDNSKSQVFLKLNSLQTDDTATYYCAKGRYGNYEDWYFDVWGTGTTVTVSS VL: DIQMTQSPASLSASVGETVTITCRASGNIHNYLAWYQQKQGKSPQLLVYNAKTLAAGVPSRFSGSGSGTQYSLKINSLQPEDFGSYYCQHFWSIPLTFGAGTKLELK

— US20240294650A1 (Alector, published 2024)
